In patent publication US20090169520:

Tests used:
[1] = biological target: synthetic Aβ (1-40) peptide (Biosource), P05067
[2] = biological target: T1, Amylin (islet amyloid polypeptide, IAPP), P10997
T1 chain: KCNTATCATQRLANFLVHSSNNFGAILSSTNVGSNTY

Sequence of synthetic Aβ (1-40) peptide (Biosource), P05067 (P05067 whole entry, looked up, tested part not stated): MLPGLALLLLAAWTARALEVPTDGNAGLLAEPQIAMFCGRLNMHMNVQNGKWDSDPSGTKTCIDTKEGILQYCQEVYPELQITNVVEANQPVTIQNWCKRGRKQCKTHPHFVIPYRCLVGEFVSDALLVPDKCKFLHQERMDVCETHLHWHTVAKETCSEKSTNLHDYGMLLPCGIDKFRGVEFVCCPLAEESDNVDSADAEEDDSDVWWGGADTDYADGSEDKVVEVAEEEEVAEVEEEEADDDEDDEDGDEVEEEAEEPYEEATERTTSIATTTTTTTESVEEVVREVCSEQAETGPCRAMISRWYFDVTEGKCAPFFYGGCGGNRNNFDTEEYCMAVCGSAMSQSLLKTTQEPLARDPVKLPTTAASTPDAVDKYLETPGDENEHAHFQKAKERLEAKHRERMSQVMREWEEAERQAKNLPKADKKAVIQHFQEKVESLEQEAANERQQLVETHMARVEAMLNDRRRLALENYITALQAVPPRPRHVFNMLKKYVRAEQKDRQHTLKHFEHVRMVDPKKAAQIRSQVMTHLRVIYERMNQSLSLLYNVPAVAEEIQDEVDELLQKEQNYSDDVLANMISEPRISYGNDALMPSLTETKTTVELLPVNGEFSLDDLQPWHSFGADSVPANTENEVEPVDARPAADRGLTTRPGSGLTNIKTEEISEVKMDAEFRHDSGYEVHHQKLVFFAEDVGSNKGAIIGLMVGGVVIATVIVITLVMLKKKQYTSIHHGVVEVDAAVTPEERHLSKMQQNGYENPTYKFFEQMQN

B1: recombinant human AChE-S (synaptic acetylcholinesterase) (protein)
chain: EGREDAELLVTVRGGRLRGIRLKTPGGPVSAFLGIPFAEPPMGPRRFLPPEPKQPWSGVVDATTFQSVCYQYVDTLYPGFEGTEMWNPNRELSEDCLYLNVWTPYPRPTSPTPVLVWIYGGGFYSGASSLDVYDGRFLVQAERTVLVSMNYRVGAFGFLALPGSREAPGNVGLLDQRLALQWVQENVAAFGGDPTSVTLFGESAGAASVGMHLLSPPSRGLFHRAVLQSGAPNGPWATVGMGEARRRATQLAHLVGCPPGGTGGNDTELVACLRTRPAQVLVNHEWHVLPQESVFRFSFVPVVDGDFLSDTPEALINAGDFHGLQVLVGVVKDEGSYFLVYGAPGFSKDNESLISRAEFLAGVRVGVPQVSDLAAEAVVLHYTDWLHPEDPARLREALSDVVGDHNVVCPVAQLAGRLAAQGARVYAYVFEHRASTLSWPLWMGVPHGYEIEFIFGIPLDPSRNYTAEEKIFAQRLMRYWANFARTGDPNEPRDPKAPQWPPYTAGAQQYVSLDLRPLEVRRGLRAQACAFWNRFLPKLLSATDTLDEAERQWKAEFHRWSSYMVHWKNQFDHYSKQDRCSDL
Lag (fold change) of Aβ fibrillation against no addition [1]: 0.6 fold | Lag (h) before onset of Aβ fibrillation (no addition: 4.0 ± 0.3) [1]: 2.5 h | Rate (FU/h) of Aβ fibrillation, ThT fluorescence, 33 µM Aβ, AChE-S at 25.8 mg/L (no addition: 3.4 ± 0.4) [1]: 7 FU/h | Rate (fold change) of Aβ fibrillation against no addition [1]: 2.1 fold

B2: purified human BChE (butyrylcholinesterase, from human serum; Sigma) (protein)
chain: EDDIIIATKNGKVRGMNLTVFGGTVTAFLGIPYAQPPLGRLRFKKPQSLTKWSDIWNATKYANSCCQNIDQSFPGFHGSEMWNPNTDLSEDCLYLNVWIPAPKPKNATVLIWIYGGGFQTGTSSLHVYDGKFLARVERVIVVSMNYRVGALGFLALPGNPEAPGNMGLFDQQLALQWVQKNIAAFGGNPKSVTLFGESAGAASVSLHLLSPGSHSLFTRAILQSGSFNAPWAVTSLYEARNRTLNLAKLTGCSRENETEIIKCLRNKDPQEILLNEAFVVPYGTPLSVNFGPTVDGDFLTDMPDILLELGQFKKTQILVGVNKDEGTAFLVYGAPGFSKDNNSIITRKEFQEGLKIFFPGVSEFGKESILFHYTDWVDDQRPENYREALGDVVGDYNFICPALEFTKKFSEWGNNAFFYYFEHRSSKLPWPEWMGVMHGYEIEFVFGLPLERRDNYTKAEEILSRSIVKRWANFAKYGNPNETQNNSTSWPVFKSTEQKYLTLNTESTRIMTKLRAQQCRFWTSFFPKVLEMTGNIDEAEWEWKAGFHRWNNYMMDWKNQFNDYTSKKESCVGL
lag time of amylin amyloid fibril formation with 0.24 µM BChE (30 minutes without) [2]: increased the lag time of amyloid fibril formation from 30 minutes to 110 minutes | time for which amylin fibril formation was completely attenuated (20 µM amylin, 0.24 µM BChE, ThT fluorescence) [2]: BChE completely attenuated the formation of amylin fibrils for 100 minutes | Aβ fibril formation in a mix of 33 µM Aβ with 0.36 µM AChE-S and increasing doses of hBChE (ThT fluorescence) [1]: a dose-dependent interference with the fibril formation process was observed | Lag (fold change) of Aβ fibrillation against no addition [1]: 1.4 fold | Lag (h) before onset of Aβ fibrillation [1]: 5.6 h | Rate (FU/h) of Aβ fibrillation, ThT fluorescence, BChE at 27.4 mg/L [1]: 1.1 FU/h | Rate (fold change) of Aβ fibrillation against no addition [1]: 0.3 fold | concentration needed for a complete attenuation of Aβ fibrillation (for 400 minutes) [1]: as compared with 30 µg/ml of the complete BChE enzyme | time for which Aβ fibril formation was totally prevented (0.4 µM BChE, 33 µM Aβ, ThT fluorescence) [1]: addition of 0.4 µM BChE to 33 µM Aβ totally prevented fibril formation for over 600 minutes
